Data published in patent publication EP3222635A1.

How the values were obtained:
[1] = target: Soluble human P-selectin (human) (UniProt P16109); assay: SPR (SensiQ), antibody captured on protein G, soluble human P-selectin 100nM-1.56nM as analyte
[2] = target: Soluble human P-selectin (human) (UniProt P16109); assay: SPR (SensiQ), reference G1

UniProt P16109, sequence (P16109 42-771 limits assumed): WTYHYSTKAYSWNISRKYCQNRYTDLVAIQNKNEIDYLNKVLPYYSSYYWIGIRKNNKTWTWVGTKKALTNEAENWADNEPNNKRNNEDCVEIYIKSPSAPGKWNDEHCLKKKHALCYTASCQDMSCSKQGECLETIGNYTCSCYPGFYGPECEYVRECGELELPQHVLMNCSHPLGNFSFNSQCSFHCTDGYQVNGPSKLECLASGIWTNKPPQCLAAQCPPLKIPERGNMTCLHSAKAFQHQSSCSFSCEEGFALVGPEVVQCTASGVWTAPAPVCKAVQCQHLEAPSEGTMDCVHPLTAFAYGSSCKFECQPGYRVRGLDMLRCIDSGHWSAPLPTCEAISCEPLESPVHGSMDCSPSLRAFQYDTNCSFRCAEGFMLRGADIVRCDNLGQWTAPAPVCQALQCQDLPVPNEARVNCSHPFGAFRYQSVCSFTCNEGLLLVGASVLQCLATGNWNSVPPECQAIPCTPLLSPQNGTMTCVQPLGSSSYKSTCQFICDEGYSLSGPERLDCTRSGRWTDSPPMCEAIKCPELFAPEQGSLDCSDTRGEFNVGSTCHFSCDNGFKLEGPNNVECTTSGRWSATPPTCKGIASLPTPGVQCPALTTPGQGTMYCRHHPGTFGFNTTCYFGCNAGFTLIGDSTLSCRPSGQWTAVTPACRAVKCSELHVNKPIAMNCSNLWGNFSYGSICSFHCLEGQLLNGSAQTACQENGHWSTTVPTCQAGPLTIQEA

Row | Molecule | Kd [1] | koff [1] | kon [1] | Ka (association constant) higher than G1 [2] | improvement in the binding affinity compared to G1 [2]
1 | G1 mouse monoclonal anti-P-selectin antibody | 8.94 nM | 0.056 s⁻¹ | 6.3e+06 M⁻¹ s⁻¹ |  | 
2 | hSel001 humanized IgG2 anti-P-selectin antibody (antibody, from another filing, V domains shown) VH: QVQLVQSGAEVKKPGASVKVSCKVSGYTFTSYDINWVRQAPGKGLEWMGWIYPGDGSIKYNEKFKGRVTMTVDKSTDTAYMELSSLRSEDTAVYYCARRGEYGNYEGAMDYWGQGTLVTVSS VL: DIQMTQSPSSLSASVGDRVTITCKASQSVDYDGHSYMNWYQQKPGKAPKLLIYAASNLESGVPSRFSGSGSGTDFTLTISSLQPEDFATYYCQQSDENPLTFGGGTKVEIKR | 5.89 nM | 0.0131 s⁻¹ | 2.22e+06 M⁻¹ s⁻¹ | 64.7% | 34%
